Assay results: IntAct's records for PubMed 22579248

B1: Partitioning defective 3 homolog (Homo sapiens), Q8TEW0 (parent)
chain: MKVTVCFGRTRVVVPCGDGHMKVFSLIQQAVTRYRKAIAKDPNYWIQVHRLEHGDGGILDLDDILCDVADDKDRLVAVFDEQDPHHGGDGTSASSTGTQSPEIFGSELGTNNVSAFQPYQATSEIEVTPSVLRANMPLHVRRSSDPALIGLSTSVSDSNFSSEEPSRKNPTRWSTTAGFLKQNTAGSPKTCDRKKDENYRSLPRDTSNWSNQFQRDNARSSLSASHPMVGKWLEKQEQDEDGTEEDNSRVEPVGHADTGLEHIPNFSLDDMVKLVEVPNDGGPLGIHVVPFSARGGRTLGLLVKRLEKGGKAEHENLFRENDCIVRINDGDLRNRRFEQAQHMFRQAMRTPIIWFHVVPAANKEQYEQLSQSEKNNYYSSRFSPDSQYIDNRSVNSAGLHTVQRAPRLNHPPEQIDSHSRLPHSAHPSGKPPSAPASAPQNVFSTTVSSGYNTKKIGKRLNIQLKKGTEGLGFSITSRDVTIGGSAPIYVKNILPRGAAIQDGRLKAGDRLIEVNGVDLVGKSQEEVVSLLRSTKMEGTVSLLVFRQEDAFHPRELNAEPSQMQIPKETKAEDEDIVLTPDGTREFLTFEVPLNDSGSAGLGVSVKGNRSKENHADLGIFVKSIINGGAASKDGRLRVNDQLIAVNGESLLGKTNQDAMETLRRSMSTEGNKRGMIQLIVARRISKCNELKSPGSPPGPELPIETALDDRERRISHSLYSGIEGLDESPSRNAALSRIMGESGKYQLSPTVNMPQDDTVIIEDDRLPVLPPHLSDQSSSSSHDDVGFVTADAGTWAKAAISDSADCSLSPDVDPVLAFQREGFGRQSMSEKRTKQFSDASQLDFVKTRKSKSMDLGIADETKLNTVDDQKAGSPSRDVGPSLGLKKSSSLESLQTAVAEVTLNGDIPFHRPRPRIIRGRGCNESFRAAIDKSYDKPAVDDDDEGMETLEEDTEESSRSGRESVSTASDQPSHSLERQMNGNQEKGDKTDRKKDKTGKEKKKDRDKEKDKMKAKKGMLKGLGDMFRFGKHRKDDKIEKTGKIKIQESFTSEEERIRMKQEQERIQAKTREFRERQARERDYAEIQDFHRTFGCDDELMYGGVSSYEGSMALNARPQSPREGHMMDALYAQVKKPRNSKPSPVDSNRSTPSNHDRIQRLRQEFQQAKQDEDVEDRRRTYSFEQPWPNARPATQSGRHSVSVEVQMQRQRQEERESSQQAQRQYSSLPRQSRKNASSVSQDSWEQNYSPGEGFQSAKENPRYSSYQGSRNGYLGGHGFNARVMLETQELLRQEQRRKEQQMKKQPPSEGPSNYDSYKKVQDPSYAPPKGPFRQDVPPSPSQVARLNRLQTPEKGRPFYS
partner: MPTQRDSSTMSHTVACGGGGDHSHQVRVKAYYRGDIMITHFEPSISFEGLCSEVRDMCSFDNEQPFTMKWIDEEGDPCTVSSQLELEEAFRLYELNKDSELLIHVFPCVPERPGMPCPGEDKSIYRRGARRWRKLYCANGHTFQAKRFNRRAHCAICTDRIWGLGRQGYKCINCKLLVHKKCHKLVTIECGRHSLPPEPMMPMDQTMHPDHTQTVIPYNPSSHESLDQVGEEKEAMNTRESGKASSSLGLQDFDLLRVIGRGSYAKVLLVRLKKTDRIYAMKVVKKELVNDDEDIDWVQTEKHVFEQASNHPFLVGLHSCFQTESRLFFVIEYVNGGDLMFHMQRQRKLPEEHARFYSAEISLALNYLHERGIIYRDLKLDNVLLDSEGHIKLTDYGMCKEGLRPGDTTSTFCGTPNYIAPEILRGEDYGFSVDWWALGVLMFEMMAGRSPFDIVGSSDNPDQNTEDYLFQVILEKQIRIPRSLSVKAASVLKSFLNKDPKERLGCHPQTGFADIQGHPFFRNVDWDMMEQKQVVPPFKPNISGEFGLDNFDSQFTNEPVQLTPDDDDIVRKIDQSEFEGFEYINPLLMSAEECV
B2: Protein kinase C iota type (Mus musculus), Q62074 (parent)
chain: B1 partner

Variants of: B1
Conditions: with kpci_mouse Prkci

Variant	effect of a mutation on the interaction
F818A	disrupting interaction strength
R820A	disrupting interaction strength
F823A	disrupting interaction strength
F823K	decreasing interaction strength
R825A	disrupting interaction strength
S827A	decreasing interaction strength
S827A;S829A	disrupting interaction strength
S827E	disrupting interaction strength
S827E;S829E	disrupting interaction strength
S829E	disrupting interaction strength
K831A	disrupting interaction strength
R832A	disrupting interaction strength

Variants of: B2
Conditions: with pard3_human PARD3, Q8TEW0

Variant	effect of a mutation on the interaction
D291K;D292L;E293Q;D294K	decreasing interaction strength
N417D	decreasing interaction strength

Variants of: B2
Conditions: with pard3_human PARD3, Q8TEW0
Remark: another data set of the same source

Variant	effect of a mutation on the interaction
Y125A;R126A;R127A	increasing interaction strength
